Source: patent US20120259096A1

Experiments:
[1] = molecular target: human Nav1.7 channel (type IX voltage-gated sodium channel alpha subunit) (human) (UniProt Q15858); experiment: cell-based or functional assay
[2] = molecular target: recombinant rat Nav1.7 channels expressed in HEK cells (rat) (UniProt O08562); experiment: cell-based or functional assay
Chain of recombinant rat Nav1.7 channels expressed in HEK cells (rat) (O08562 whole entry): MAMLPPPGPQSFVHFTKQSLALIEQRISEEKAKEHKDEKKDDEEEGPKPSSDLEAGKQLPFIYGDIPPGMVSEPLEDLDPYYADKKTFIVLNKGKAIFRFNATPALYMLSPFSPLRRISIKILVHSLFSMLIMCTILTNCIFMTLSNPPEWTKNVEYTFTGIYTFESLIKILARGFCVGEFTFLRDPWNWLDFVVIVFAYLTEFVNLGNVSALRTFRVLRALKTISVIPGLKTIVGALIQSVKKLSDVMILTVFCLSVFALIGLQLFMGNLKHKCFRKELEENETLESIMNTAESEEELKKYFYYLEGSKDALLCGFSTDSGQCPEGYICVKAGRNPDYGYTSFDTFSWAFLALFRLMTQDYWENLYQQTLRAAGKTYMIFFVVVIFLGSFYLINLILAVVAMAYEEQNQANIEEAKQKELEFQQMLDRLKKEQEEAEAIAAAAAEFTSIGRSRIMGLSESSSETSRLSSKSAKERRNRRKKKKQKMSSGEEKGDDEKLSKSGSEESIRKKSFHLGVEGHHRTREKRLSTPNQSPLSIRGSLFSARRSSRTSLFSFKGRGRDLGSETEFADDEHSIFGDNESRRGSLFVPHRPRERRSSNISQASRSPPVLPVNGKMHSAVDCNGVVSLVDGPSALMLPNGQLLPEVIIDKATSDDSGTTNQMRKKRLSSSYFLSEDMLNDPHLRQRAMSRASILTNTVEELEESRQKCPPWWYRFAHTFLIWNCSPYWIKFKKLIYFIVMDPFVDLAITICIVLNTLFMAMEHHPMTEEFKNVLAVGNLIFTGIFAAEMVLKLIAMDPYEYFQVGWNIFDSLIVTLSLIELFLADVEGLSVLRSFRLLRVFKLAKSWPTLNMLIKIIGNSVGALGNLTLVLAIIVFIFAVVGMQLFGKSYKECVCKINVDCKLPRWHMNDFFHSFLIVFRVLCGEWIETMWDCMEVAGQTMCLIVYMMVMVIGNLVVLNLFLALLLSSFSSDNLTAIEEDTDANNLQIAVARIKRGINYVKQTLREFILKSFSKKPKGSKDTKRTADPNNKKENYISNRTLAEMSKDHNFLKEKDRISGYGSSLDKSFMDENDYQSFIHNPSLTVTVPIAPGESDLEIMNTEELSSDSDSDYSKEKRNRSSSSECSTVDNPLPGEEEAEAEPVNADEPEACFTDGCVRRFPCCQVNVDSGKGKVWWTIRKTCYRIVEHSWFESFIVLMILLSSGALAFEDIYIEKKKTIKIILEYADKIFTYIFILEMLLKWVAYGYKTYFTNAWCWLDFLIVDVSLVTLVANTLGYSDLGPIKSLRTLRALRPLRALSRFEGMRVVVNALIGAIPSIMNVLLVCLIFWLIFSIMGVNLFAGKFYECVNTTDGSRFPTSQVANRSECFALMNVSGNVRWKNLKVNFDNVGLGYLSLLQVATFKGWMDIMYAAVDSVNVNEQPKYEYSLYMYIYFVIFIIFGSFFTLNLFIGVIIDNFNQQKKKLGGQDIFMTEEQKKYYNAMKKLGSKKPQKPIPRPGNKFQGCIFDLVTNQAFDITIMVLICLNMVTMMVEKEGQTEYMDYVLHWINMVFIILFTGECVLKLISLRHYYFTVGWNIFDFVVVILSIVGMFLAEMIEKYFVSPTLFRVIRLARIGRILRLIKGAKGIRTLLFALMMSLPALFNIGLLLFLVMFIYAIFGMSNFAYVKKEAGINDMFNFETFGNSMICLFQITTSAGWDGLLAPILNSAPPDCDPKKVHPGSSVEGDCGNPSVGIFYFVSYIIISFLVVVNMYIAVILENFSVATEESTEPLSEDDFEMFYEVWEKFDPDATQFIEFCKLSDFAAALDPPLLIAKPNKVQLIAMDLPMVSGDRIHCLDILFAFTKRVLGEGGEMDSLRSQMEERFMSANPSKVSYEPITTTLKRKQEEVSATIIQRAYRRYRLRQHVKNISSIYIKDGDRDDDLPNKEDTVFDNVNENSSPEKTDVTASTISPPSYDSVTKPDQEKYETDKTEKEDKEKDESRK

Binder | Nav1.7 inhibition (%), automated patch clamp on HEK cells, antibody at 25 µg/ml [1] | inhibition of Nav1.7 currents, automated patch clamp on HEK cells, antibody at 25 µg/ml [2]
CA167_00983 (antibody, from another filing, rabbit IgG1, V domains shown) VH: QSVEESGGRLVTPGTPLTLTCTVSGFSLSNYAMSWVRQAPGKGLEWIGIIGKSGSTAYASWAKGRFTISRTSTTVDLEITSPTTEDTATYFCVRFVLLWGPGTLVTVS VL: AQVLTQTASPVSAAVGGTVTINCQSSQSVYKNNDLAWYQQKPGQPPKLLIYYASTLASGVSSRFKGSGSGTEFTLTISDAQCDDAATYYCLGSYDCSSADCNAFGGGTKVVVK | 41% | 
CA167_01080 (antibody, from another filing, rabbit IgG1, V domains shown) VH: QSLEESGGRLVTPETPLTLTCTASGIDLSKWPMTWVRQAPGKGLEWIGIIGRSGSTNYASWAKGRFTISKTSTTVDLKMTSPTTEDTATYFCARGGSYYDLWGQGTLVTVS VL: AQVLTQTASPVSAAVGNTVTITCQSSQSVWKNNDLSWYQQKLGQPPKLLIYYASTLASGVSSRFKASGSGTQFTLTISDVQCDDAGTYYCVGSYDCSSADCNAFGGGTKVVVK | 46% | 26%
